Key:
Set-up in all cases: key: +: measureable activity detected in the assay; −: no measurable activity detected in the assay
[1] = system: 5-hydroxy-2-oxopentanoate; assay: Enzyme assay, decarboxylase (step A5), aldehyde dehydrogenase linked reaction; type: biochemical; conditions: BDO biosynthetic pathway step A5
Procedure, shortened: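 Crude lysates of E. coli or C. glutamicum expressing the candidate decarboxylase (0.25 mM IPTG induction) were assayed against vector-only control lysates, using natural substrate and pathway metabolite. Decarboxylation was coupled to aldehyde dehydrogenase converting the aldehyde product to acid with NAD+ reduction, followed as absorbance increase at 340 nm.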

[2] = system: 5-hydroxy-2-oxopentanoate; assay: In vitro substrate conversion assay, step A5; type: biochemical; conditions: BDO biosynthetic pathway step A5
Experimental: In Vitro Substrate Conversion. Most of the enzyme assays described above are based on recording changes in absorbance at a given wavelength. In addition to such spectrophotometric readouts, these assays can also be analyzed by more direct methods using an endpoint assay where the reaction is terminated after a given period of time and the mixture is analyzed via HPLC or LC-MS methods.
(§1) The aldehyde dehydrogenase linked reaction was used for step A5.

[3] = system: 5-hydroxy-2-oxopentanoate; assay: Bioconversion (feeding) assay, step A5; type: cell-based; conditions: BDO biosynthetic pathway step A5
Experimental: Bioconversion assays. The activity of a candidate enzyme towards a given substrate can also be evaluated in vivo using a simple feeding assay. A strain expressing the candidate enzyme is grown in the presence of the substrate for which activity is desired. Samples of the culture are removed periodically and the cells are removed via centrifugation. The culture supernatant is then analyzed (e.g., by LC-MS) to determine how much of the substrate has been removed and how much of a given product is present.
as §1

5-hydroxy-L-norvaline = assay: Enzyme assay, aminotransferase (step A4), cell lysates; type: biochemical; conditions: BDO biosynthetic pathway step A4
Experimental: Enzyme expression and crude lysate preparation. The enzymatic activity of each candidate enzyme is evaluated, first in E. coli and subsequently in C. glutamicum. It will be apparent to one of skill in the art that the expression and lysate preparations may need to be modified depending on the host cell and recombinant gene of interest.
E. coli: E. coli strains transformed with expression clones, for example, pUC18 or MB4124 based clones having a medium strong constitutive promoter regulating the recombinant gene of interest, are grown aerobically in LB medium (Difco) containing the appropriate antibiotic(s). At an OD600 of 0.5, IPTG is added to a final concentration of 0.25 mM. The cultures are grown to a final OD600 of 1.5 at which time the cells are collected and harvested by centrifugation. Cell pellets are resuspended in BugBuster (Novagen) reagent containing benzonase and lysozyme. Alternatively, E. coli strains transformed with expression clones, are grown overnight aerobically at 37° C. in BHI containing the appropriate antibiotic(s). 300 μL of fresh overnight culture is used to inoculate 2.7 mL BHI containing 0.25 mM IPTG and the appropriate antibiotic. The cultures are grown aerobically for 4-5 hours at 37° C. at which time the cells are collected and harvested by centrifugation. Cell pellets are frozen at −80° C. for at least 15 minutes, then thawed and resuspended in BugBuster (Novagen) reagent. Lysis and lysate collection are performed according to the manufacturer's instructions and, for example, may involve use of a sonicator and/or French press. Cleared lysates are stored on ice until enzyme assays are performed.
C. glutamicum: C. glutamicum strains transformed with MB4124 expression clones containing the recombinant gene of interest are grown aerobically in BHI broth supplemented with the proper antibiotic(s). At an OD600 of 0.5, IPTG is added to a final concentration of 0.25 mM. The cultures are grown to a final OD600 of 1.5 at which time the cells are collected and harvested by centrifugation. The pellet is washed once in one volume of water and resuspended in lysis buffer (1.0 ml 1.0 M HEPES buffer, pH 7.5, 0.5 ml 1M KOH, 10 μl 0.5M EDTA, protease inhibitor cocktail, water to 5 ml; the final pH will vary depending on the individual enzyme being tested) and one volume of 0.1 mm acid washed glass beads. The mixture is repeatedly alternately vortexed and held on ice for 15 seconds, eight times. After centrifugation for 5 min at 4,000 rpm, the supernatant lysate is removed and respun for 20 min at 10,000 rpm. Alternatively, C. glutamicum strains transformed with MB4124 expression clones containing the recombinant gene of interest are grown aerobically overnight in BHI broth supplemented with the proper antibiotic(s). Five mL of fresh overnight culture is used to inoculate 200 mL BHI containing 0.25 mM IPTG and the appropriate antibiotic. The cultures are grown aerobically at 30° C. for 5-7 hours at which time the cells are collected and harvested by centrifugation at 4° C. The pellet is resuspended in 15 mL ice cold 39 mM KH2PO4, 61 mM K2HPO4, 0.5 M KCl and lysed using a BioSpec BeadBeater and following the manufacturer's instructions. […]
Protein Assays. Protein concentrations in lysates are determined according to the methods of Bradford et al. (Anal. Biochem. 72:248-254 [1976]) or by the method of Smith et al. (Anal. Biochem. 150(1):76-85 [1985]) and lysates are assayed according to the methods below. […]

| Molecule | Enzyme Assay [1] | In Vitro Substrate Conversion Assay [2] | Bioconversion Assay [3] | Enzyme Assay (5-hydroxy-L-norvaline) |
| --- | --- | --- | --- | --- |
| PdcSs: Enzyme candidate for BDO biosynthetic pathway step A5, SEQ ID NO. 41 (protein, listed as Staphylococcus saprophyticus) MKKRVGQYLMDCISDVGVDKVFGVPGDFNLTFLDDIISRDDMEWIGNTNELNASYAADGYARMKGIAAMVTTFGVGELSAVNGIAGSYAERVPVIQITGAPTRAVESAGKYVHHSLGEGNFDDYRNMYASITTAQAYITPENAQSEIPRVINAALYEKRPVHIHLPIDVANSEIDVATPFEIEQRPQTDVTKYMTMVKDKLQSADKPVIITGHEINSFKLHEKLEQFVKQSQIPVVQLSLGKGAFNETSPYYMGIYDASLAEEDIRNYVDQSDAILNIGAKLTDSATAGYSYQFDIDDVVMINHHHFKMNETKDTEVSLVDLLDGLNAINYVNNAEFPKFKQPKAHDYDLTDEPLTQETYFKMMQDFIREEDVILAEQGTSFFGAYDLALKHNNKFIGQPLWGSIGYTLPATLGTQMADTSRRNLLLIGDGSLQLTVQEISTMIREKIKPIIFVINNDGYTVERKIHGENAMYNDIKMWDYKLLPTVFGGKDEVQVHDVNTSEAFQKVLLQIEAQPDTMHFIEVKMGVHDAPHKLNAIGQAFAKQNG | − | − | − |  |
| PdcBc: Enzyme candidate for BDO biosynthetic pathway step A5, SEQ ID NO. 42 (protein, listed as Bacillus cereus) MKKQYTVSTYLLDRLHELGIEHIFGVPGDYNLAFLDDVVAHENLKWIGNCNELNAAYAADGYARIKGIAALITTFGVGELSAINGIAGSYAENVPVIKITGTPPTKVMENGAIVHHTLGDGKFDHFSNMYREITVAQTNVTPEHAAEEIDRVLRACWNEKRPVHINLPIDVYNKPINKPTEPIINKPILSNKEALNKMLLHAISKINSAKKPVILADFEVDRFHAKENLHQFVEKTGFPIATLSMGKGIFPEKHPQFIGIYTGDVSSPYLRKRIDESDCIISIGVKLTDTITGGFTQGFTKEQVIEIHPYTVKIIDKKYGPVVMQDVLQHLSDSIEHRNKDTLDVKPFILESSPFTEEFIPKAQMVTQKRFWQQMYHFLQENDVLIVEQGTPFFGSSAIPLPNNTAYVGQPLWGSIGYTLPALLGTQLANLSRRNILIIGDGSFQVTAQELSTILRQNLKPIIFLINNNGYTVERAIHGQNQLYNDIQMWDYNKLSMVFGAEEKSLTFKVENEAELAAVLTNITFNKNQLIFIEVIMSQSDQPELLAKLGKRSGQQNS | − | − | − |  |
| BioACg: Enzyme candidate for BDO biosynthetic pathway step A4, SEQ ID NO. 29 (protein, listed as Corynebacterium glutamicum) MENPSLRELDHRNIWHPYAAPGVRNRLVTKTDGVFLTLEDGSTVIDAMSSWWSAIHGHGHPRLKAAAQKQIDTMSHVMFGGLTHEPAIKLTHKLLNLTGNSFDHVFYSDSGSVSVEVAIKMALQASKGQGHPERTKLLTWRSGYHGDTFTAMSVCDPENGMHSLWKGTLPEQIFAPAPPVRGSSPQAISEYLRSMELLIDETVSAIIIEPIVQGAGGMRFHDVALIEGVATLCKKHDRFLIVDEIATGFGRTGELFATLSNGLQPDIMCVGKALTGGFMSFAATLCTDKVAQLISTPNGGGALMHGPTFMANPLACAVSHASLEIIETGMWQKQVKRIEAELIAGLSPLQHLPGVADVRVLGAIGVIEMEQNVNVEEATQAALDHGVWIRPFGRLLYVMPPYITTSEQCAQICTALHAAVKGK |  |  |  | − |
| PdcZm: Enzyme candidate for BDO biosynthetic pathway step A5, SEQ ID NO. 38 (protein, listed as Zymomonas mobilis) MSYTVGTYLAERLVQIGLKHHFAVAGDYNLVLLDNLLLNKNMEQVYCCNELNCGFSAEGYARAKGAAAAVVTYSVGALSAFDAIGGAYAENLPVILISGAPNNNDHAAGHVLHHALGKTDYHYQLEMAKNITAAAEAIYTPEEAPAKIDHVIKTALREKKPVYLEIACNIASMPCAAPGPASALFNDEASDEASLNAAVEETLKFIANRDKVAVLVGSKLRAAGAEEAAVKFADALGGAVATMAAAKSFFPEENPHYIGTSWGEVSYPGVEKTMKEADAVIALAPVFNDYSTTGWTDIPDPKKLVLAEPRSVVVNGIRFPSVHLKDYLTRLAQKVSKKTGALDFFKSLNAGELKKAAPADPSAPLVNAEIARQVEALLTPNTTVIAETGDSWFNAQRMKLPNGARVEYEMQWGHIGWSVPAAFGYAVGAPERRNILMVGDGSFQLTAQEVAQMVRLKLPVIIFLINNYGYTIEVMIHDGPYNNIKNWDYAGLMEVFNGNGGYDSGAGKGLKAKTGGELAEAIKVALANTDGPTLIECFIGREDCTEELVKWGKRVAAANSRKPVNKLL | − | − | − |  |
| IlvECg: Enzyme candidate for BDO biosynthetic pathway step A4, SEQ ID NO. 28 (protein, listed as Corynebacterium glutamicum) MYLSGSRCTLKSMTSLEFTVTRTENPTSPDRLKEILAAPKFGKFFTDHMVTIDWNESEGWHNAQLVPYAPIPMDPATTVFHYGQAIFEGIKAYRHSDETIKTFRPDENAERMQRSAARMAMPQLPTEDFIKALELLVDADQDWVPEYGGEASLYLRPFMISTEIGLGVSPADAYKFLVIASPVGAYFTGGIKPVSVWLSEDYVRAAPGGTGDAKFAGNYAASLLAQSQAAEKGCDQVVWLDAIEHKYIEEMGGMNLGFIYRNGDQVKLVTPELSGSLLPGITRKSLLQVARDLGYEVEERKITTTEWEEDAKSGAMTEAFACGTAAVITPVGTVKSAHGTFEVNNNEVGEITMKLRETLTGIQQGNVEDQNGWLYPLVG |  |  |  | − |
| BATlY1: Enzyme candidate for BDO biosynthetic pathway step A4, SEQ ID NO. 31 (protein, listed as Yarrowia lipolytica) MLRNNLRSLSRAFSTSSMRLGAGMDASKLQITKTKSPKEKQAPKDLIFGHTFTDHMLTVEWTAKDGWAAPQITPYGPLELDPSAVVLHYAFECFEGLKAYKDESGNVRLFRVDKNMHRMNTSAERICLPEFDGAEAAKLIGQLAKLDSAWIPEGRGYSMYLRPSLIGTTAALGVGTPDKALFYVIASPVGPYYPTGFKAVKLEATDYAVRAWPGGVGNKKLGANYAPCIKPQQQAASRGYQQNLWLFGDEGNITEVGTMNAFFVFERNGKKELVTAPLDGTILEGVTRDSILELARERLPSADWIVSERYCTIKEVAEAAEKGELVEAFGAGTAAVVSPIKEIGWGEKTINIPLQPGKEAGKLTETVNEWIGDIQYGKDEYKGWSKVV |  |  |  | − |
| BcaTLp: Enzyme candidate for BDO biosynthetic pathway step A4, SEQ ID NO. 34 (protein, listed as Lactobacillus plantarum) MADVQLDWNNLGFEYRNLPYRYRAYWKDGAWYKKELTGDATLHISEGSTALHYGQQDFEGLKAYRTKDGSVQLFRPDRNAARMQTSCERLLMPQVPTDMFVDAVKQVVKANQDYVPPYGTGATLYLRPLMIGVGGNIGVHPAQEYIFTVFAMPVGSYFKGGMTPTNFTTSEYDRAAHKGTGAYKVGGNYAASLFPGQEAHANGFSDCVYLDPVEHRKIEEVGSANFFGITKDGTFVTPKSPSILPAVTKYSLLYLAEHKFGMKTEQGDVYIDDLDRFAEAGACGTAAVISPIGGLEHQGKLHVFYSETEVGPVTKKLYDELTGIQFGDREAPEGWVQKVELD |  |  |  | − |

— patent publication US20110014669A1, “Production of 1,4 Butanediol in a Microorganism” (Microbia, Inc., priority 2009, published 2011)
